B1: toripalimab Fab H.H35A (Fab, V domains shown)
VH: QGQLVQSGAEVKKPGASVKVSCKASGYTFTDYEMAWVRQAPIHGLEWIGVIESETGGTAYNQKFKGRVTITADKSTSTAYMELSSLRSEDTAVYYCAREGITTVATTYYWYFDVWGQGTTVTVSS
VL: DVVMTQSPLSLPVTLGQPASISCRSSQSIVHSNGNTYLEWYLQKPGQSPQLLIYKVSNRFSGVPDRFSGSGSGTDFTLKISRVEAEDVGVYYCFQGSHVPLTFGQGTKLEIK
notes: heavy chain of Sm3 with this change; numbers count from the chain's first residue; as the light chain of Sm3; source: Brevibacillus, culture supernatant (ammonium sulfate precipitate); not shown: 6xHis, C-terminal, kept; 6xHN, C-terminal, kept
B2: toripalimab Fab L.E39A (Fab, V domains shown)
VH: QGQLVQSGAEVKKPGASVKVSCKASGYTFTDYEMHWVRQAPIHGLEWIGVIESETGGTAYNQKFKGRVTITADKSTSTAYMELSSLRSEDTAVYYCAREGITTVATTYYWYFDVWGQGTTVTVSS
VL: DVVMTQSPLSLPVTLGQPASISCRSSQSIVHSNGNTYLAWYLQKPGQSPQLLIYKVSNRFSGVPDRFSGSGSGTDFTLKISRVEAEDVGVYYCFQGSHVPLTFGQGTKLEIK
notes: as the heavy chain of Sm3; light chain of Sm3 with this change; numbers count from the chain's first residue; source: Brevibacillus, culture supernatant (ammonium sulfate precipitate); not shown: 6xHis, C-terminal, kept; 6xHN, C-terminal, kept
B3: toripalimab Fab H.T55A (Fab, V domains shown)
VH: QGQLVQSGAEVKKPGASVKVSCKASGYTFTDYEMHWVRQAPIHGLEWIGVIESEAGGTAYNQKFKGRVTITADKSTSTAYMELSSLRSEDTAVYYCAREGITTVATTYYWYFDVWGQGTTVTVSS
VL: DVVMTQSPLSLPVTLGQPASISCRSSQSIVHSNGNTYLEWYLQKPGQSPQLLIYKVSNRFSGVPDRFSGSGSGTDFTLKISRVEAEDVGVYYCFQGSHVPLTFGQGTKLEIK
notes: as for B1
B4: toripalimab Fab H.E52A (Fab, V domains shown)
VH: QGQLVQSGAEVKKPGASVKVSCKASGYTFTDYEMHWVRQAPIHGLEWIGVIASETGGTAYNQKFKGRVTITADKSTSTAYMELSSLRSEDTAVYYCAREGITTVATTYYWYFDVWGQGTTVTVSS
VL: DVVMTQSPLSLPVTLGQPASISCRSSQSIVHSNGNTYLEWYLQKPGQSPQLLIYKVSNRFSGVPDRFSGSGSGTDFTLKISRVEAEDVGVYYCFQGSHVPLTFGQGTKLEIK
notes: as for B1
B5: toripalimab Fab L.H31A (Fab, V domains shown)
VH: QGQLVQSGAEVKKPGASVKVSCKASGYTFTDYEMHWVRQAPIHGLEWIGVIESETGGTAYNQKFKGRVTITADKSTSTAYMELSSLRSEDTAVYYCAREGITTVATTYYWYFDVWGQGTTVTVSS
VL: DVVMTQSPLSLPVTLGQPASISCRSSQSIVASNGNTYLEWYLQKPGQSPQLLIYKVSNRFSGVPDRFSGSGSGTDFTLKISRVEAEDVGVYYCFQGSHVPLTFGQGTKLEIK
notes: as for B2
B6: toripalimab Fab L.Q95Y (Fab, V domains shown)
VH: QGQLVQSGAEVKKPGASVKVSCKASGYTFTDYEMHWVRQAPIHGLEWIGVIESETGGTAYNQKFKGRVTITADKSTSTAYMELSSLRSEDTAVYYCAREGITTVATTYYWYFDVWGQGTTVTVSS
VL: DVVMTQSPLSLPVTLGQPASISCRSSQSIVHSNGNTYLEWYLQKPGQSPQLLIYKVSNRFSGVPDRFSGSGSGTDFTLKISRVEAEDVGVYYCFYGSHVPLTFGQGTKLEIK
notes: as for B2
B7: toripalimab Fab H.E54Y (Fab, V domains shown)
VH: QGQLVQSGAEVKKPGASVKVSCKASGYTFTDYEMHWVRQAPIHGLEWIGVIESYTGGTAYNQKFKGRVTITADKSTSTAYMELSSLRSEDTAVYYCAREGITTVATTYYWYFDVWGQGTTVTVSS
VL: DVVMTQSPLSLPVTLGQPASISCRSSQSIVHSNGNTYLEWYLQKPGQSPQLLIYKVSNRFSGVPDRFSGSGSGTDFTLKISRVEAEDVGVYYCFQGSHVPLTFGQGTKLEIK
notes: as for B1
B8: toripalimab Fab L.L101H (Fab, V domains shown)
VH: QGQLVQSGAEVKKPGASVKVSCKASGYTFTDYEMHWVRQAPIHGLEWIGVIESETGGTAYNQKFKGRVTITADKSTSTAYMELSSLRSEDTAVYYCAREGITTVATTYYWYFDVWGQGTTVTVSS
VL: DVVMTQSPLSLPVTLGQPASISCRSSQSIVHSNGNTYLEWYLQKPGQSPQLLIYKVSNRFSGVPDRFSGSGSGTDFTLKISRVEAEDVGVYYCFQGSHVPHTFGQGTKLEIK
notes: as for B2

biological target: T1, human programmed cell death protein 1 (hPD-1) C93S (aa 24-167) (Homo sapiens, UniProt Q15116, C93S); test: SPR; Carterra LSA; Fab from the ammonium sulfate precipitate of the culture supernatant immobilised on a NiHC200M chip; hPD-1 (1-1024 nM) or mPD-1-Fc (4-1024 nM) as analyte, fourfold dilution series, no regeneration; HBS-EP pH 7.4, 25 °C; medians over the spots of a construct, KD = koff/kon; details: one partner purified
T1 construct: made as a fusion with a TEV site and human Fc; the Fc was cut off with TEV protease; source: Expi293F, purified (Protein A, TEV cleavage of Fc, SEC; monomer fractions); not shown: Fc (human), C-terminal, cleaved
Method in brief: (§1)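 Human PD-1 (1–1024 nM) or mouse PD-1-Fc (4–1024 nM), in fourfold series, was flowed without regeneration over Fabs captured in duplicate on a NiHC200M chip (Carterra LSA, 25 °C), using 10 min association and 5 min dissociation. The Fabs had been recovered from Brevibacillus culture supernatants by ammonium sulfate precipitation and redissolved in HBS-EP. For binding constants, KD was defined as koff/kon from per-construct medians, with rates fitted by the kdka model under slow- or fast-dissociation settings (best fit) and unconfirmed binders set to kon 10^3 […] and koff 10^−2 s^−1.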

T1 sequence (Q15116 24-167 C93S): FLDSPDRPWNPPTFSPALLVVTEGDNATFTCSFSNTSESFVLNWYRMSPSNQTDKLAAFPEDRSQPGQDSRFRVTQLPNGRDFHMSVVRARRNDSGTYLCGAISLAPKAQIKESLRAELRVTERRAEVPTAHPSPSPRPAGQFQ

**Q.** B1 was tested. Which Kd did it give?
**A.** Its Kd is 2.47 µM.

**Q.** And the koff?
**A.** The koff was 0.00804 s⁻¹.

**Q.** What about the kon of the same binder?
**A.** The kon was 3250 M⁻¹ s⁻¹.

**Q.** Which Kd does the source give for B2 here?
**A.** Its Kd is 0.0884 µM.

**Q.** And the koff?
**A.** Its koff is 0.000203 s⁻¹.

**Q.** And the kon?
**A.** The kon was 2290 M⁻¹ s⁻¹.

**Q.** For B3, which Kd is on record?
**A.** The Kd was 0.00576 µM.

**Q.** And the koff?
**A.** The koff was 4.01e-05 s⁻¹.

**Q.** What about the kon of the same binder?
**A.** Its kon is 6960 M⁻¹ s⁻¹.

**Q.** B4 was tested. Which Kd did it give?
**A.** The Kd was 0.0401 µM.

**Q.** And the koff?
**A.** The koff was 0.000844 s⁻¹.

**Q.** And the kon?
**A.** Its kon is 21100 M⁻¹ s⁻¹.

**Q.** Which results are given for B5?
**A.** Kd: 0.0573 µM; koff: 0.000589 s⁻¹; kon: 10300 M⁻¹ s⁻¹

**Q.** Which results are given for B6?
**A.** Kd: 0.055 µM; koff: 0.000734 s⁻¹; kon: 13300 M⁻¹ s⁻¹

**Q.** B7 was tested. Which Kd did it give?
**A.** The Kd was under 0.000326 µM.

**Q.** And the koff?
**A.** The koff was under 1e-05 s⁻¹.

**Q.** What about the kon of the same binder?
**A.** Its kon is 30700 M⁻¹ s⁻¹.

**Q.** What does the source list for B8?
**A.** Kd: 0.0606 µM; koff: 0.00111 s⁻¹; kon: 18400 M⁻¹ s⁻¹

biological target: T2, mouse programmed cell death protein 1 Fc fusion protein (mPD-1-Fc), mPD-1 C60S (aa 25-167) (Mus musculus, UniProt Q02242, stabilised); test: as above; details: one partner purified
T2 construct: not cleaved; source: Expi293F, purified (Protein A, SEC; dimeric fraction); not shown: Fc (human), C-terminal, kept
Method in brief: as §1

**Q.** Which Kd does the source give for B3 here?
**A.** The Kd was 0.411 µM.

**Q.** And the koff?
**A.** The koff was 0.0151 s⁻¹.

**Q.** And the kon?
**A.** The kon was 36800 M⁻¹ s⁻¹.

**Q.** Which Kd does the source give for B7 here?
**A.** The Kd was 0.0803 µM.

**Q.** And the koff?
**A.** Its koff is 0.00402 s⁻¹.

**Q.** And the kon?
**A.** The kon was 50100 M⁻¹ s⁻¹.

From publication PMC10663500, “High-throughput analysis system of interaction kinetics for data-driven antibody design” (Scientific Reports, 2023)
